The subject of assay [1] is DNA (sequence derived from the mouse H19 promoter). The assay is described as follows: EMSA. Type of assay: binding. Particulars: purified recombinant protein, unmethylated or methylated oligos, 300 ng salmon sperm DNA competitor. As to the method:
Expression and purification of recombinant His-ZNF512B protein was done as described ([32]). Briefly, pFastBac1 vectors were transformed into DH10Bac bacteria and viruses were generated according to the Bac-to-Bac™ Baculovirus Expression System Protocol (Invitrogen). Extracts were prepared 3 days after infection by washing the cells twice with ice cold PBS and incubation on ice for 10 min in hypotonic buffer (10 mM HEPES-KOH pH 7.9, 1.5 mM MgCl2, 10 mM KCl). After brief vortexing and centrifugation, the pellet (nuclei) was incubated for 20 min in hypertonic buffer (20 mM HEPES-KOH pH 7.9, 25% glycerol, 420 mM NaCl, 1.5 mM MgCl2, 0.2 mM EDTA). After centrifugation for 10 min at 16 000 × g the supernatant was stored at −20°C or directly used for electrophoretic mobility shift assays (EMSAs). Alternatively, the supernatant was purified by FPLC using the Äkta Start (Cytiva) via a His-Trap column (71502768) by standard procedures outlined in the instructions of the manufacturer.
EMSAs were performed as originally described ([34]) with the exception that 300 ng of salmon sperm DNA per reaction were used as an unspecific competitor. […]
For orientation: A gel shift assay detects complexes by their altered migration in electrophoresis.

The test system of assay [2] is 4xUAS-tk-luc reporter in HEK293T cells. Description: Luciferase reporter assay. Type of assay: cell-based. As to conditions: GAL fusion, 72 h, three biological replicates. How it is done: Per well of a 6-well plate, 1.5 × 10^5 HEK293T cells were seeded and transfected on the next day using 1 μg of 4xUAS-tk-luc reporter plasmid, 0.5 μg GAL expression vector and 0.5 μg pCMV-lacZ vector for normalization. Cells were directly lysed in well after 72 h with 200 μl Lysis buffer (25 mM Tris/Cl pH 7.5, 8 mM MgCl2, 1 mM EDTA, 1% Triton™ X-100, 15% glycerin, 1 mM DTT) for 15 min at RT. Supernatants were used to measure luciferase activity by mixing 100 μl 1:1 with 90 mg/L D-Luciferin/0.8 mM ATP and quantifying emitted light after 5 s incubation with an Orion L plate reader (Titertek-Berthold). Values were normalized to β-galactosidase activity by adding 5 μL supernatant to 900 μl LacZ buffer (50 mM Na2HPO4, 10 mM KCl, 0.1 mM MgSO4, pH 7) and 100 μl 4 g/L OPNG/0.1 M KPO4. When a color change of the mixture occurred, absorbance at 420 nm was measured.

B1: His-ZNF512B: purified recombinant His-ZNF512B protein (protein, UniProt Q96KM6 1-892, looked up)
Zinc finger protein 512B: MTDPFCVGGRRLPGSSKSGPGKDGSRKEVRLPMLHDPPKMGMPVVRGGQTVPGQAPLCFDPGSPASDKTEGKKKGRPKAENQALRDIPLSLMNDWKDEFKAHSRVKCPNSGCWLEFPSIYGLKYHYQRCQGGAISDRLAFPCPFCEAAFTSKTQLEKHRIWNHMDRPLPASKPGPISRPVTISRPVGVSKPIGVSKPVTIGKPVGVSKPIGISKPVSVGRPMPVTKAIPVTRPVPVTKPVTVSRPMPVTKAMPVTKPITVTKSVPVTKPVPVTKPITVTKLVTVTKPVPVTKPVTVSRPIVVSKPVTVSRPIAISRHTPPCKMVLLTRSENKAPRATGRNSGKKRAADSLDTCPIPPKQARPENGEYGPSSMGQSSAFQLSADTSSGSLSPGSRPSGGMEALKAAGPASPPEEDPERTKHRRKQKTPKKFTGEQPSISGTFGLKGLVKAEDKARVHRSKKQEGPGPEDARKKVPAAPITVSKEAPAPVAHPAPGGPEEQWQRAIHERGEAVCPTCNVVTRKTLVGLKKHMEVCQKLQDALKCQHCRKQFKSKAGLNYHTMAEHSAKPSDAEASEGGEQEERERLRKVLKQMGRLRCPQEGCGAAFSSLMGYQYHQRRCGKPPCEVDSPSFPCTHCGKTYRSKAGHDYHVRSEHTAPPPEEPTDKSPEAEDPLGVERTPSGRVRRTSAQVAVFHLQEIAEDELARDWTKRRMKDDLVPETARLNYTRPGLPTLNPQLLEAWKNEVKEKGHVNCPNDCCEAIYSSVSGLKAHLASCSKGAHLAGKYRCLLCPKEFSSESGVKYHILKTHAENWFRTSADPPPKHRSQDSLVPKKEKKKNLAGGKKRGRKPKERTPEEPVAKLPPRRDDWPPGCRDKGARGSTGRKVGVSKAPEK
modifications: His tag
notes: purified recombinant His-ZNF512B protein
For the molecule B1, in assay [1], the DNA binding entry is “DNA-binding protein (Figure 2F), independent of DNA methylation status”.

B2: K423A: GAL-ZNF512B with K423A mutation, loss of NuRD binding (protein)
chain: MTDPFCVGGRRLPGSSKSGPGKDGSRKEVRLPMLHDPPKMGMPVVRGGQTVPGQAPLCFDPGSPASDKTEGKKKGRPKAENQALRDIPLSLMNDWKDEFKAHSRVKCPNSGCWLEFPSIYGLKYHYQRCQGGAISDRLAFPCPFCEAAFTSKTQLEKHRIWNHMDRPLPASKPGPISRPVTISRPVGVSKPIGVSKPVTIGKPVGVSKPIGISKPVSVGRPMPVTKAIPVTRPVPVTKPVTVSRPMPVTKAMPVTKPITVTKSVPVTKPVPVTKPITVTKLVTVTKPVPVTKPVTVSRPIVVSKPVTVSRPIAISRHTPPCKMVLLTRSENKAPRATGRNSGKKRAADSLDTCPIPPKQARPENGEYGPSSMGQSSAFQLSADTSSGSLSPGSRPSGGMEALKAAGPASPPEEDPERTKHRRAQKTPKKFTGEQPSISGTFGLKGLVKAEDKARVHRSKKQEGPGPEDARKKVPAAPITVSKEAPAPVAHPAPGGPEEQWQRAIHERGEAVCPTCNVVTRKTLVGLKKHMEVCQKLQDALKCQHCRKQFKSKAGLNYHTMAEHSAKPSDAEASEGGEQEERERLRKVLKQMGRLRCPQEGCGAAFSSLMGYQYHQRRCGKPPCEVDSPSFPCTHCGKTYRSKAGHDYHVRSEHTAPPPEEPTDKSPEAEDPLGVERTPSGRVRRTSAQVAVFHLQEIAEDELARDWTKRRMKDDLVPETARLNYTRPGLPTLNPQLLEAWKNEVKEKGHVNCPNDCCEAIYSSVSGLKAHLASCSKGAHLAGKYRCLLCPKEFSSESGVKYHILKTHAENWFRTSADPPPKHRSQDSLVPKKEKKKNLAGGKKRGRKPKERTPEEPVAKLPPRRDDWPPGCRDKGARGSTGRKVGVSKAPEK
modifications: left off: GFP, end not stated, kept
Take B2: the “repression of luciferase reporter” value in assay [2] is given as “over 50%”.

(Values after publication PMC11602157, “ZNF512B binds RBBP4 via a variant NuRD interaction motif and aggregates chromatin in a NuRD complex-independent manner” (Nucleic Acids Research, 2024).)
